Changes are numbered by the printed parent chain. In names and notes the source's numbering stands.
How the values were obtained:
BcgI B subunit [1] = target: T1, BcgI B subunit (UniProt Q07606 1-341); assay: AUC
T1 sequence (looked up): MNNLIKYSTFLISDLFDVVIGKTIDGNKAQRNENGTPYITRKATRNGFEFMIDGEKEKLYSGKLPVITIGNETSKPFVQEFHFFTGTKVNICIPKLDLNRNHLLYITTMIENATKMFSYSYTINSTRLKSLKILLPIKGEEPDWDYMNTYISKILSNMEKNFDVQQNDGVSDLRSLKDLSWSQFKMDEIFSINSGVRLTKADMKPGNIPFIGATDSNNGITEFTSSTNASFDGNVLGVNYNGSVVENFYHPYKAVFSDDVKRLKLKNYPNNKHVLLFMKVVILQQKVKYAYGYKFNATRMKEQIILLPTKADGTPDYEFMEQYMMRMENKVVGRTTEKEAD

BcgI B subunit [2] = target: T1, BcgI B subunit; assay: native MS

B1: BcgI A subunit, wild type (as a subunit of WT BcgI) (enzyme, UniProt Q07605 1-637, looked up)
chain: MVNEKTSTDQLVRRFIEDLGVTYEEQGSSNIQIKQALRSASKSKSQSGVGKPEFIFFSGNHLIIVEDKLAIDKLEYKNNDGIIDTEFPFRRDYAVNGAVHYARHIIEKTNSYKEVIAIGIAGDGLHYQIHPYFVSETELKKLPEMKSLEDISPENIEEFYKVAVLGELPKEERELREVNKIAADMHEDLRNYGQLEGEKKATVVSAILLALEEPTFSLNQLIGSDRVGGTDGEIIFNAVRVYLENAGIVPYAKVGEMLDQFIFIQRDVTLNTVNSNLEMTPLKYFATTLEAEIMDKIKSNTDFDILGNFYGEFVKYGGNDGNPLGIVLTPRHITSLMAELIGINKSDFVLDPACGTGAFLISAMNRMLGQAENDDERRDIKQNRLYGIEIQQKLFTIATTNMILRGDGKSNLIRDNCLTFDNTIMNGYGINKILMNPPYSQAKNDQTQHLSELSFIQQALEMLVVGGKLCAIVPQSTMVGKNRHDKARKKQILKQHTLETVITLNKDTFHGVGVNPCIVIFKAGIKHPENKRVSFVNFEDDGHVVRKHVGLVGDGTEKGKREHLLAVLAGDEDDGTDLIVKTAIKDTDEWLHSFYYFNDGIPSEDDFYKTVANYLTFQFDMTANGKGYLFEGVEENE
stoichiometry N (BcgI B subunit [1]): 2 A per B

B2: BcgI A subunit, E53A mutant (as a subunit of the BcgI E53A protein) (enzyme, UniProt Q07605 1-637, looked up)
chain: B1 chain with E53A
stoichiometry N (BcgI B subunit [2]): 2 A per B

Source: PMC3592470 (Nucleic Acids Research, 2012)
